The results in this text go back to article PMC4876856.

The target in this assay is truncated rabbit TRPV2 (residues 56-560 and 581-721) (rabbit) (UniProt G1SNM3). The assay is described as follows: cryo-EM structure.

As for “truncated rabbit TRPV2 (residues 56-560 and 581-721) (from UniProt G1SNM3 56-560; G1SNM3 581-721) (domain or fragment)”, the stoichiometry N was determined as 4.

A word on the stoichiometry N: it is the number of molecules, sites or subunits per partner or assembly.
